# Data reported in patent US20170240645A1 (Genentech, published 2017).
# T1: endothelin B receptor (ETBR) (UniProt P24530 27-442, limits assumed)
# T1 sequence (looked up): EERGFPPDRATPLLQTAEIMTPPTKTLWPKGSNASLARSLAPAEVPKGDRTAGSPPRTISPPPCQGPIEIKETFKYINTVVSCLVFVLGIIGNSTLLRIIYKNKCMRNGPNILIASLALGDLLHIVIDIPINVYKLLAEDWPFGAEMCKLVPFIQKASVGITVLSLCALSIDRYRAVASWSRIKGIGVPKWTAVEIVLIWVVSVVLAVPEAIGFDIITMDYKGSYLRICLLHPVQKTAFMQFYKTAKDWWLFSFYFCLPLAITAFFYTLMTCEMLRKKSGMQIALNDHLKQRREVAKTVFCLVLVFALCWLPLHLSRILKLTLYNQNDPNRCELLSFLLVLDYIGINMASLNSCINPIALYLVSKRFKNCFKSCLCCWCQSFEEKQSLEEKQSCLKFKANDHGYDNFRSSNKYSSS
# T2: human PMEL17 (human, UniProt P40967 25-661)
# T2 construct: Untagged PMEL17 as it occurs on melanoma cell lines, normal human melanocytes, PC3 cells stably expressing PMEL17 cDNA, and in human tissue sections; also called Melanocyte protein PMEL17
# T2 sequence: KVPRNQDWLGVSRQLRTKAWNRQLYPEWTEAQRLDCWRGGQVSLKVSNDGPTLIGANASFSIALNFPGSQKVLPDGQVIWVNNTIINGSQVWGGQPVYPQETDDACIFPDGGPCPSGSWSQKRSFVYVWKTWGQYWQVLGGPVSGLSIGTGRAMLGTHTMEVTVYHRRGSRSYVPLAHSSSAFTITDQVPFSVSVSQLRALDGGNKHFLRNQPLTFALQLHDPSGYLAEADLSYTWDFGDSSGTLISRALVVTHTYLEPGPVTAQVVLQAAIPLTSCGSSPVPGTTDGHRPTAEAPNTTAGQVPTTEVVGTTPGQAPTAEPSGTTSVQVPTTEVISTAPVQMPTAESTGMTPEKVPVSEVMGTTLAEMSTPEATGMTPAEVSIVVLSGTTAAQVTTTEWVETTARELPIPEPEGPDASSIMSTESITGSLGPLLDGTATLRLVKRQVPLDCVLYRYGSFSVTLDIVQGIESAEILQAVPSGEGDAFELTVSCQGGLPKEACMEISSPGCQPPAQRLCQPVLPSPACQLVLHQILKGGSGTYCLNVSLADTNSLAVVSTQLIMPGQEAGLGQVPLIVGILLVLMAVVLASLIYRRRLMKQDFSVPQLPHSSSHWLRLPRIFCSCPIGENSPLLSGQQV
# Tests used:
# [1] = molecular target: T1, endothelin B receptor (ETBR); test: cell-based or functional assay
# human PMEL17 [2] = molecular target: T2, human PMEL17; test: flow cytometry on parental and in vivo-derived resistant UACC-257X2.2 melanoma cells, detected with anti-human Alexa 488 conjugate; control peak is secondary antibody only
# Description: Expression of ETBR and PMEL17 on the surface of the in vivo- and in vitro-derived resistant UACC-257X2.2 cells and the parental UACC-257X2.2 cells was then determined by FACS. Cells were stained with anti-ETBR antibody (hu5E9.v1 or ch5E9) or with anti-PMEL17 antibody (ch17A9), followed by an anti-human Alexa 488 antibody conjugate. […] Surface expression of PMEL17 was unchanged in the resistant cells as compared to the parental cells.
# human PMEL17 [3] = molecular target: T2, human PMEL17; test: FACS screen of hybridoma clones
binder,measurement,setting,value
"anti-ETBR-PNU (ch5E9 conjugated to MC-PNU-159682 through a non-cleavable linker) (antibody, human IgG1, kappa, V domains shown, MC-PNU-159682 on reduced cysteine residues of the antibody) VH: QVQLLQSGAELARPGASVKLSCKASGYTFTSYWMQWVKQRPGQGLEWIGTIYPGDGDTSYAQKFKGKATLTTDKYSSTAYMQLSSLASEDSAVYYCARWGYAYDIDNWGQGTLVTVSS VL: not shown","EC50 of cell survival (CellTiter-Glo), in vitro derived resistant UACC-257X2.2 cells",[1],0.0146 µg/mL
same,"EC50 of cell survival (CellTiter-Glo), in vivo derived resistant UACC-257X2.2 cells",[1],0.0143 µg/mL
same,"EC50 of cell survival (CellTiter-Glo), parental UACC-257X2.2 cells",[1],0.0042 µg/mL
"ch17A9 (antibody, human IgG1, kappa, V domains shown, also called chimeric 17A9) VH: EVQLQQSGPELVKPGASMKISCKSSGYSFTRYTMNWVKQSHGKNLEWIGVINPYNGGTVYNQKFKGKATLTVDKSSSTAYMELLSLTSEDSAVYYCARTDYDGYAMDYWGQGTSVTVSS VL: DVQITQSPSYLAASPGETITINCRATKSISKYLAWYQEQPGKTNNLLIYSGSTLQSGIPSRFSGSGSGTDFTLTISSLEPEDFAMYYCQQHNEYPYTFGSGTKLEIKR",binding result,human PMEL17 [2],binds
"8G3 (antibody, V domains shown, Mouse monoclonal antibody from a hybridoma) VH: EVQLQQSGPELVKPGASMRISCKASGYSFTGYTMNWVKQSHGKNLEWIGVYNPYNGGTVYNQKFKGKATLTVDKSSSTTYMELLSLTSEDSAVYYCARTDSGGYAMDCWGQGTSVTVSS VL: DVQITQSPSYLDASPGETITINCRASKTISKYLAWYQEKPGKTNKLLIYSGSTLQSGIPSRFSGSGSGTDFTLTISSLEPEDFAMYYCQQHNEYPYTFGSGTKLEIK",binding result,human PMEL17 [3],binds
"15F2 (antibody, V domains shown, Mouse monoclonal antibody from a hybridoma) VH: QVQLKESGPGLVAPSQSLSITCTVSGFSLTKYGVHWVRQPPGKGLEWLGVIWAGGNTNYNSALMSRLSINKDNSKSQVFLKMNSLQTDDTAMYYCATFDVWGAGTTVTVSS VL: DIVMTQAAPSVPVTPGESVSISCRSSKSLLHSNGNTFLYWFLQRPGQSPQLLIYRMSNLVSGVPDRFSGSGSGTAFTLRISRVEAEDVGFYYCMQHLEYPYTFGGGTKLELK",binding result,human PMEL17 [3],binds
